B1: Protein phosphatase 1 regulatory inhibitor subunit 16B (Homo sapiens), Q96T49 (parent)
chain: MASHVDLLTELQLLEKVPTLERLRAAQKRRAQQLKKWAQYEQDLQHRKRKHERKRSTGGRRKKVSFEASVALLEASLRNDAEEVRYFLKNKVSPDLCNEDGLTALHQCCIDNFEEIVKLLLSHGANVNAKDNELWTPLHAAATCGHINLVKILVQYGADLLAVNSDGNMPYDLCEDEPTLDVIETCMAYQGITQEKINEMRVAPEQQMIADIHCMIAAGQDLDWIDAQGATLLHIAGANGYLRAAELLLDHGVRVDVKDWDGWEPLHAAAFWGQMQMAELLVSHGASLSARTSMDEMPIDLCEEEEFKVLLLELKHKHDVIMKSQLRHKSSLSRRTSSAGSRGKVVRRASLSDRTNLYRKEYEGEAILWQRSAAEDQRTSTYNGDIRETRTDQENKDPNPRLEKPVLLSEFPTKIPRGELDMPVENGLRAPVSAYQYALANGDVWKVHEVPDYSMAYGNPGVADATPPWSSYKEQSPQTLLELKRQRAAAKLLSHPFLSTHLGSSMARTGESSSEGKAPLIGGRTSPYSSNGTSVYYTVTSGDPPLLKFKAPIEEMEEKVHGCCRIS
partner: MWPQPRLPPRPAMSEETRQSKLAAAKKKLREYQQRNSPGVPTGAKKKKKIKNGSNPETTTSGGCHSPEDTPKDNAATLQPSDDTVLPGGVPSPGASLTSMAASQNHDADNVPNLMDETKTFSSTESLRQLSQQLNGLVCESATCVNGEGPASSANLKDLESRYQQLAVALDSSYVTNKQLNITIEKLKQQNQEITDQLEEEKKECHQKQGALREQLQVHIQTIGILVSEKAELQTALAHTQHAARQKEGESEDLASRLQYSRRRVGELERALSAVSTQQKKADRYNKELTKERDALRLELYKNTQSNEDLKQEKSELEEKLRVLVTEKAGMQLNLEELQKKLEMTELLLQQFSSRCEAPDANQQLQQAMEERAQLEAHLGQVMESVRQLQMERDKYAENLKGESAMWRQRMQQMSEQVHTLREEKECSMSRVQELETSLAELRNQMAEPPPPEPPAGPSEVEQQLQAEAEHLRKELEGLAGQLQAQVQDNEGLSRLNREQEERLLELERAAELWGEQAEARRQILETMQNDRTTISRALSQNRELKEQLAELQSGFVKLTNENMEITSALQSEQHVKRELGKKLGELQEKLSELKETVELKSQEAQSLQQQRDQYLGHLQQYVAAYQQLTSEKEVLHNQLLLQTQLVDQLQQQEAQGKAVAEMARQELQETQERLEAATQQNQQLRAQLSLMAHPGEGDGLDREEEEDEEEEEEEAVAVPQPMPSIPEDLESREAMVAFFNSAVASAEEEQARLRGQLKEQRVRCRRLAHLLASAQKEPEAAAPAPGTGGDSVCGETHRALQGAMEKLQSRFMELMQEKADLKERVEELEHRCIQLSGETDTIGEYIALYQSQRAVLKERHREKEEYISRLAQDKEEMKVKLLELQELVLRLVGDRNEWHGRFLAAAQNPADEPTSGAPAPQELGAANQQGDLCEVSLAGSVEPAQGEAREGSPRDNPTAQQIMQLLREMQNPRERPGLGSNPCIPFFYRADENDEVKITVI
B2: Peroxisomal membrane protein 11C (Homo sapiens), Q96HA9 (parent)
chain: MASLSGLASALESYRGRDRLIRVLGYCCQLVGGVLVEQCPARSEVGTRLLVVSTQLSHCRTILRLFDDLAMFVYTKQYGLGAQEEDAFVRCVSVLGNLADQLYYPCEHVAWAADARVLHVDSSRWWTLSTTLWALSLLLGVARSLWMLLKLRQRLRSPTAPFTSPLPRGKRRAMEAQMQSEALSLLSNLADLANAVHWLPRGVLWAGRFPPWLVGLMGTISSILSMYQAARAGGQAEATTP
partner: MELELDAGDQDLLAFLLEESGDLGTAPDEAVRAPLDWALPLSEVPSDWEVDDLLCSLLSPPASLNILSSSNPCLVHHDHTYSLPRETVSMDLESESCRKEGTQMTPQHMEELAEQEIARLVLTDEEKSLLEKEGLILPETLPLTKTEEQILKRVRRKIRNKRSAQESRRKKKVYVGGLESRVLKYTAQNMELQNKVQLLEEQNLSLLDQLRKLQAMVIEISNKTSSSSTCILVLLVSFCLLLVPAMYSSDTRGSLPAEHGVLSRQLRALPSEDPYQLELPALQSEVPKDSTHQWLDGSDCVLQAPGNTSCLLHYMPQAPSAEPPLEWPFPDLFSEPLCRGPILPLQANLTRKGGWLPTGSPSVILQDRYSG
B3: Poliovirus receptor (Homo sapiens), P15151 (parent)
chain: MARAMAAAWPLLLVALLVLSWPPPGTGDVVVQAPTQVPGFLGDSVTLPCYLQVPNMEVTHVSQLTWARHGESGSMAVFHQTQGPSYSESKRLEFVAARLGAELRNASLRMFGLRVEDEGNYTCLFVTFPQGSRSVDIWLRVLAKPQNTAEVQKVQLTGEPVPMARCVSTGGRPPAQITWHSDLGGMPNTSQVPGFLSGTVTVTSLWILVPSSQVDGKNVTCKVEHESFEKPQLLTVNLTVYYPPEVSISGYDNNWYLGQNEATLTCDARSNPEPTGYNWSTTMGPLPPFAVAQGAQLLIRPVDKPINTTLICNVTNALGARQAELTVQVKEGPPSEHSGISRNAIIFLVLGILVFLILLGIGIYFYWSKCSREVLWHCHLCPSSTEHASASANGHVSYSAVSRENSSSQDPQTEGTR
partner: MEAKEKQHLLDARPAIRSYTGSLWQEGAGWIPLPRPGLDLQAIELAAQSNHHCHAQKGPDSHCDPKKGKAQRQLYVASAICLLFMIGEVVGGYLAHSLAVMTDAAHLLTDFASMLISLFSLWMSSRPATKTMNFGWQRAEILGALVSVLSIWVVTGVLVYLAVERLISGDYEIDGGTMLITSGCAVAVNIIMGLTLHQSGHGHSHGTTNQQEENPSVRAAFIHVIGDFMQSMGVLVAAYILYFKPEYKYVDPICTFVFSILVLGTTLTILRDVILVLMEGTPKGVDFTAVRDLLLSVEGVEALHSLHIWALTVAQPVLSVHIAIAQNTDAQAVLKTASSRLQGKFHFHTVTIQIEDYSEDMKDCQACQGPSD
B4: Mediator of RNA polymerase II transcription subunit 18 (Homo sapiens), Q9BUE0 (parent)
chain: MEAPPVTMMPVTGGTINMMEYLLQGSVLDHSLESLIHRLRGLCDNMEPETFLDHEMVFLLKGQQASPFVLRARRSMDRAGAPWHLRYLGQPEMGDKNRHALVRNCVDIATSENLTDFLMEMGFRMDHEFVAKGHLFRKGIMKIMVYKIFRILVPGNTDSTEALSLSYLVELSVVAPAGQDMVSDDMKNFAEQLKPLVHLEKIDPKRLM
partner: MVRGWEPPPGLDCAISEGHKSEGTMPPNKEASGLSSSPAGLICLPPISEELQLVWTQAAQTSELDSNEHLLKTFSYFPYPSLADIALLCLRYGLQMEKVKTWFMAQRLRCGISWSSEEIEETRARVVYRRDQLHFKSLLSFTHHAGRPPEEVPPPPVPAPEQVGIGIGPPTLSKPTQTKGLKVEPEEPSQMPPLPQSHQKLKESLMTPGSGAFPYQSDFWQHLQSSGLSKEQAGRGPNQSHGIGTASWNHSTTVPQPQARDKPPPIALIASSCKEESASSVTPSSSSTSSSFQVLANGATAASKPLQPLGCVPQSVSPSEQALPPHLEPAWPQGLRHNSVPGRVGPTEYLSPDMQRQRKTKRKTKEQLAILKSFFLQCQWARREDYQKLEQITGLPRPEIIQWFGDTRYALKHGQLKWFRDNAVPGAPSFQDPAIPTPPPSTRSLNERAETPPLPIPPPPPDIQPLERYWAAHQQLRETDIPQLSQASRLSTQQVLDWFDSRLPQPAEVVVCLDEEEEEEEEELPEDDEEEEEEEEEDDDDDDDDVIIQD
B5: Protein FAM167A (Homo sapiens), Q96KS9 (parent)
chain: MSVPQIHVEEVGAEEGAGAAAPPDDHLRSLKALTEKLRLETRRPSYLEWQARLEEHTWPFPRPAAEPQASLEEGERGGQEPLLPLREAGQHPPSARSASQGARPLSTGKLEGFQSIDEAIAWLRKELTEMRLQDQQLARQLMRLRGDINKLKIEHTCRLHRRMLNDATYELEERDELADLFCDSPLASSFSLSTPLKLIGVTKMNINSRRFSLC
partner: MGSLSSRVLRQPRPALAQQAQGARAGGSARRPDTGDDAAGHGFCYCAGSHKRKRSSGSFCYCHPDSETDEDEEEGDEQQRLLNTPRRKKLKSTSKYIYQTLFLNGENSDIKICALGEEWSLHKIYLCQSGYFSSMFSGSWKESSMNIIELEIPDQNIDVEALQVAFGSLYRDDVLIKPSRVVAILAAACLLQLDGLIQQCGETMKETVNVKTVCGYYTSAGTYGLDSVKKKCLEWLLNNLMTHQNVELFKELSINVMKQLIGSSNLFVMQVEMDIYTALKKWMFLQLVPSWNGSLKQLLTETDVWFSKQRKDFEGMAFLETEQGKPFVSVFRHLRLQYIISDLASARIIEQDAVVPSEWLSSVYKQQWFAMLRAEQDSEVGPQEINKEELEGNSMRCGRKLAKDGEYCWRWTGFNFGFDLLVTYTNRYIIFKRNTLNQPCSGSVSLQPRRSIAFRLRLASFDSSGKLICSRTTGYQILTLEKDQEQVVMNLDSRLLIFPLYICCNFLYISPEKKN
B6: Keratin-associated protein 26-1 (Homo sapiens), Q6PEX3 (parent)
chain: MSCPNYCSGNSNSGSLRTSRHIPLTSIDLCPTSVSCGDVLYLPTSSQDHTWVTDNCQETCGEPTSCQPVHCETGNLETSCGSSTAYYVPRPCQGSSFLPASFFSSSCLPVSCRPQRYVSSGCRPLRPLLNSYQPIGDCVPNAYRPQFCLSKSCQPQNLLTSGCQPSSCLAYRPQSLHVVSSSLRPLGPLFSGCQPLTHVFSTCRPSCSGL
partner: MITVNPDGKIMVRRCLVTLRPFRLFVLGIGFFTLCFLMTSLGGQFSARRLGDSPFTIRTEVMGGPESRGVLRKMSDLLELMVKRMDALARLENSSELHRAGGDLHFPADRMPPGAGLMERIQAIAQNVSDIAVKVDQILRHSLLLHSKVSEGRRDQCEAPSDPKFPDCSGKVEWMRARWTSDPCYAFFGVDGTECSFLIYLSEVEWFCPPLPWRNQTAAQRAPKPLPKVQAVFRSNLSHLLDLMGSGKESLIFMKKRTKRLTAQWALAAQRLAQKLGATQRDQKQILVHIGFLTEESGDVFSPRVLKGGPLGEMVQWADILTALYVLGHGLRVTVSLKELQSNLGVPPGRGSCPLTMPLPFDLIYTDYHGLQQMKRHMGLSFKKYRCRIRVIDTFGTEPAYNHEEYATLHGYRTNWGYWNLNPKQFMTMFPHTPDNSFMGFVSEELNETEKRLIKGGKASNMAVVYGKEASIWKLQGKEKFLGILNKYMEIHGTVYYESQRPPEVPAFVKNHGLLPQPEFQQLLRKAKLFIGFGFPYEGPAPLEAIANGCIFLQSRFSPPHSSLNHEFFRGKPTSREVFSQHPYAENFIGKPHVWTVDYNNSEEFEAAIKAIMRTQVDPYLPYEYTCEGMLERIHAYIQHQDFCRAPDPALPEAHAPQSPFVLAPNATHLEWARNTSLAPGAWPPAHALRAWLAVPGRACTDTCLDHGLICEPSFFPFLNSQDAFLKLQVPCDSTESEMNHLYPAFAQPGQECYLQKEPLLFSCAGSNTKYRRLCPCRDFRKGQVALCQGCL

Variants of: B1
Conditions: with goga2_human GOLGA2, Q08379

**Q.** P519S was tested. Which “effect of a mutation on the interaction” value did it give?
**A.** with no effect

Variants of: B2
Conditions: with creb3_human CREB3, O43889

**Q.** For C91W, which “effect of a mutation on the interaction” value is on record?
**A.** with no effect

Variants of: B3
Conditions: with znt2_human SLC30A2, Q9BRI3

**Q.** With A67T as the variant, how does the “effect of a mutation on the interaction” value read?
**A.** with no effect

Variants of: B4
Conditions: with homez_human HOMEZ

**Q.** With M19V as the variant, how does the “effect of a mutation on the interaction” value read?
**A.** with no effect

Variants of: B5
Conditions: with gmcl1_human GMCL1, Q96IK5

**Q.** With S99T as the variant, how does the “effect of a mutation on the interaction” value read?
**A.** with no effect

Variants of: B6
Conditions: with mgt5b_human MGAT5B

**Q.** How did the “effect of a mutation on the interaction” value turn out when S26Y was run?
**A.** with no effect

Reference: IntAct's records for PubMed 31515488
